Molecular target: T1, natriuretic peptide receptor GC-A (human, UniProt P16066 33-1061)
T1 sequence (looked up): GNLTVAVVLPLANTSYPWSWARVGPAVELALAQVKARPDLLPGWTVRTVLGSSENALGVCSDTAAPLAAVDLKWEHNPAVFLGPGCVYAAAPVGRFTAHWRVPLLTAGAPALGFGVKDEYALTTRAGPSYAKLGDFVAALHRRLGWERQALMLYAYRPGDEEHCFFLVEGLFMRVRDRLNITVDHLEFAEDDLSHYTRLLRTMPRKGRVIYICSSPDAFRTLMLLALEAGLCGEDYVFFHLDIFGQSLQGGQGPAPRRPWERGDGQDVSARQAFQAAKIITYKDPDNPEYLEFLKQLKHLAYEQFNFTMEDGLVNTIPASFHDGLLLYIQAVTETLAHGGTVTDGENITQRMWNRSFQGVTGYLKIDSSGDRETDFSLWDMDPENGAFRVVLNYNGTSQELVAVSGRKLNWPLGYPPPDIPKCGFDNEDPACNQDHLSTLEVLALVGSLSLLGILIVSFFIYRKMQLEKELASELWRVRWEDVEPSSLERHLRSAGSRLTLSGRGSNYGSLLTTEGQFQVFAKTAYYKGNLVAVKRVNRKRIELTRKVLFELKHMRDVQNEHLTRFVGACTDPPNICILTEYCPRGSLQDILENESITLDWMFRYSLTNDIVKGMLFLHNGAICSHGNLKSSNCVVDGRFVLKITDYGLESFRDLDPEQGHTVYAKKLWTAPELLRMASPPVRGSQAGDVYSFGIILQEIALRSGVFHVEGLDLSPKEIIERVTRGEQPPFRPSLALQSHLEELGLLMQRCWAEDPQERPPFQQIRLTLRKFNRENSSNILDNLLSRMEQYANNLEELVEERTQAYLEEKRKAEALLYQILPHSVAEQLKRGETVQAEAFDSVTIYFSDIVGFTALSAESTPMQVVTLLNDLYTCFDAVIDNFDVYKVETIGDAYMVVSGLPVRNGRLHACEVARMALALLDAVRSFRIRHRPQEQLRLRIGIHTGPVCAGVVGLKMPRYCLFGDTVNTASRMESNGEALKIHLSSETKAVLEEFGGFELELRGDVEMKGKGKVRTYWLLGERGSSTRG
Assay: cell-based or functional assay

ratio of suppression of EMT induced by TGF-β1 in terms of E-cad/Ncad (A549 cells, 1 µM): 52.9%
Binder: SLRRSSCFGLKLDRIGAQSGLGCNSFRY [LKL-ANP (mutant in which the amino acids at positions 10 to 12 of hANP are replaced with LKL)]
